{"source": "the supplement of paper PMC10065799", "about": "“High-throughput profiling of sequence recognition by tyrosine kinases and SH2 domains using bacterial peptide display” (eLife, 2023);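 further: 11-residue human phosphosite peptides and single-mutation variants displayed on the E. coli surface, counted by deep sequencing, each peptide's frequency after selection divided by its frequency in the unselected input library; frequency after pTyr selection over input frequency; kinase dosed for 20-30% of maximal phosphorylation in three min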", "data": [{"biological_target": "FGFR3 (UniProt P22607)", "sequence (P22607 whole entry, looked up)": "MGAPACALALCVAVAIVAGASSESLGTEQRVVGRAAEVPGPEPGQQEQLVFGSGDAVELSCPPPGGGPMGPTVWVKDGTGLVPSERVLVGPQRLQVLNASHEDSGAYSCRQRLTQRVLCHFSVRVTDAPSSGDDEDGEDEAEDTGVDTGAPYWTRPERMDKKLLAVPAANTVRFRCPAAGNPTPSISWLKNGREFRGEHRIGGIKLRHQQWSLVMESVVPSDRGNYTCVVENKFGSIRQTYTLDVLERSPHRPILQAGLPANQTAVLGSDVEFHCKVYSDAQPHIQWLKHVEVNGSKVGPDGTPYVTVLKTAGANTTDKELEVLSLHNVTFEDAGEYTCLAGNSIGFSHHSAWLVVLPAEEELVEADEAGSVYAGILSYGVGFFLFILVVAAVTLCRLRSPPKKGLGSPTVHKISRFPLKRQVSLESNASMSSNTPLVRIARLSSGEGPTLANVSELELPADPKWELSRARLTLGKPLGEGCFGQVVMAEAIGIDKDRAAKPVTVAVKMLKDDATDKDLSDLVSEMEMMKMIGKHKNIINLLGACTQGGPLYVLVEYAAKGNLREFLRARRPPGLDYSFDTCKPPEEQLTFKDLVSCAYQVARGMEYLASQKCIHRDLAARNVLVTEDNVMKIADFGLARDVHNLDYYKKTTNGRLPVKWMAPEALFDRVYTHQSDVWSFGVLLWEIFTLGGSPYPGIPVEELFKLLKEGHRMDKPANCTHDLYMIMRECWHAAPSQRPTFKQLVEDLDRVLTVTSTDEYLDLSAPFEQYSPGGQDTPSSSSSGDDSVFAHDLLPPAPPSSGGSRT", "test": "phosphorylation enrichment, bacterial display (enrichment ratio); higher = better substrate or ligand; peptides without Tyr show the background", "values": [{"sequence": "TFMKQYPKVFL [CNBD1_Y70]", "phosphorylation enrichment": 0.56}, {"sequence": "VDTRAYLTSAT [MT-CO1_Y304_F305L]", "phosphorylation enrichment": 0.723}, {"sequence": "MVTSGYKAKMI [EFR3A_Y447_T451M]", "phosphorylation enrichment": 0.389}, {"sequence": "VTQEPYELFCE [CBL_Y368_Q367P_YF]", "phosphorylation enrichment": 0.938}, {"sequence": "DFLSSYSAVKQ [OAT_Y85_N89K]", "phosphorylation enrichment": 0.445}, {"sequence": "PKGIGYGQGAG [CSRP3_Y73]", "phosphorylation enrichment": 0.513}, {"sequence": "TFEFKYPEGSS [TGM4_Y440_YF]", "phosphorylation enrichment": 0.827}, {"sequence": "RAMRRYLERGE [ERBB3_Y680]", "phosphorylation enrichment": 0.679}, {"sequence": "LAAAKYKLNVD [SMARCA2_Y1190]", "phosphorylation enrichment": 0.556}, {"sequence": "AVAFVYFKSIG [ADGRL4_Y301_YF]", "phosphorylation enrichment": 1.01}, {"sequence": "VPANRYDLLRL [FARSB_Y72_C76R]", "phosphorylation enrichment": 0.58}, {"sequence": "TAGEPYHDIRF [BAP1_Y223]", "phosphorylation enrichment": 1.29}, {"sequence": "EFGSGYPNDPK [RNASEH2A_Y210_D205E_YF]", "phosphorylation enrichment": 0.594}, {"sequence": "EGLRRYLENGK [HLA-A_Y195_W191G]", "phosphorylation enrichment": 0.427}, {"sequence": "GVPLGYPIKAP [ELN_Y206]", "phosphorylation enrichment": 0.399}, {"sequence": "FETDFYQKGGK [INSR_Y1190_R1191Q_YF]", "phosphorylation enrichment": 0.503}, {"sequence": "QTEAEYRFIYM [PTPN11_Y511_Q510E]", "phosphorylation enrichment": 3.09}, {"sequence": "PGDGEYFTLQI [TP53_Y327_L323G]", "phosphorylation enrichment": 7.71}, {"sequence": "PSPTKYSLSPS [RANBP2_Y785_R784K]", "phosphorylation enrichment": 0.471}, {"sequence": "VAHAVYQAVLS [SMG1_Y549]", "phosphorylation enrichment": 0.591}, {"sequence": "FFDANYDGKEF [MAPRE2_Y162_YF]", "phosphorylation enrichment": 0.695}, {"sequence": "GADDSYFTARS [ZAP70_Y492_YF]", "phosphorylation enrichment": 0.51}, {"sequence": "DTFDPYLDIAL [USP36_Y268_V271I_YF]", "phosphorylation enrichment": 1}, {"sequence": "KLVQLYGVCTK [BTK_Y461]", "phosphorylation enrichment": 0.532}, {"sequence": "FADPFYDFEIE [ZC3H18_Y372_YF]", "phosphorylation enrichment": 0.708}, {"sequence": "EVVGRYSGHNA [MLH1_Y183_V185G]", "phosphorylation enrichment": 0.48}, {"sequence": "EEKKKYFDTKI [CASP5_Y103_YF]", "phosphorylation enrichment": 0.519}, {"sequence": "MDDDQYALLTT [EFCAB6_Y675]", "phosphorylation enrichment": 1.18}, {"sequence": "NGTVTYAIIAG [CDH23_Y1672_V1675I]", "phosphorylation enrichment": 0.746}]}, {"system": "Fer (mouse)", "test": "phosphorylation enrichment, bacterial display (enrichment ratio); higher = better substrate or ligand; peptides without Tyr show the background", "values": [{"sequence": "TFMKQYPKVFL [CNBD1_Y70]", "phosphorylation enrichment": 0.436}, {"sequence": "VDTRAYLTSAT [MT-CO1_Y304_F305L]", "phosphorylation enrichment": 0.488}, {"sequence": "MVTSGYKAKMI [EFR3A_Y447_T451M]", "phosphorylation enrichment": 0.393}, {"sequence": "VTQEPYELFCE [CBL_Y368_Q367P_YF]", "phosphorylation enrichment": 1.15}, {"sequence": "DFLSSYSAVKQ [OAT_Y85_N89K]", "phosphorylation enrichment": 0.746}, {"sequence": "PKGIGYGQGAG [CSRP3_Y73]", "phosphorylation enrichment": 0.492}, {"sequence": "TFEFKYPEGSS [TGM4_Y440_YF]", "phosphorylation enrichment": 0.512}, {"sequence": "RAMRRYLERGE [ERBB3_Y680]", "phosphorylation enrichment": 0.686}, {"sequence": "LAAAKYKLNVD [SMARCA2_Y1190]", "phosphorylation enrichment": 0.52}, {"sequence": "AVAFVYFKSIG [ADGRL4_Y301_YF]", "phosphorylation enrichment": 0.728}, {"sequence": "VPANRYDLLRL [FARSB_Y72_C76R]", "phosphorylation enrichment": 0.452}, {"sequence": "TAGEPYHDIRF [BAP1_Y223]", "phosphorylation enrichment": 0.523}, {"sequence": "EFGSGYPNDPK [RNASEH2A_Y210_D205E_YF]", "phosphorylation enrichment": 0.41}, {"sequence": "EGLRRYLENGK [HLA-A_Y195_W191G]", "phosphorylation enrichment": 0.291}, {"sequence": "GVPLGYPIKAP [ELN_Y206]", "phosphorylation enrichment": 0.45}, {"sequence": "FETDFYQKGGK [INSR_Y1190_R1191Q_YF]", "phosphorylation enrichment": 0.47}, {"sequence": "QTEAEYRFIYM [PTPN11_Y511_Q510E]", "phosphorylation enrichment": 1.11}, {"sequence": "PGDGEYFTLQI [TP53_Y327_L323G]", "phosphorylation enrichment": 0.651}, {"sequence": "PSPTKYSLSPS [RANBP2_Y785_R784K]", "phosphorylation enrichment": 0.534}, {"sequence": "VAHAVYQAVLS [SMG1_Y549]", "phosphorylation enrichment": 8.18}, {"sequence": "FFDANYDGKEF [MAPRE2_Y162_YF]", "phosphorylation enrichment": 0.446}, {"sequence": "GADDSYFTARS [ZAP70_Y492_YF]", "phosphorylation enrichment": 0.417}, {"sequence": "DTFDPYLDIAL [USP36_Y268_V271I_YF]", "phosphorylation enrichment": 1.08}, {"sequence": "KLVQLYGVCTK [BTK_Y461]", "phosphorylation enrichment": 0.439}, {"sequence": "FADPFYDFEIE [ZC3H18_Y372_YF]", "phosphorylation enrichment": 0.752}, {"sequence": "EVVGRYSGHNA [MLH1_Y183_V185G]", "phosphorylation enrichment": 0.397}, {"sequence": "EEKKKYFDTKI [CASP5_Y103_YF]", "phosphorylation enrichment": 0.457}, {"sequence": "MDDDQYALLTT [EFCAB6_Y675]", "phosphorylation enrichment": 0.736}, {"sequence": "NGTVTYAIIAG [CDH23_Y1672_V1675I]", "phosphorylation enrichment": 0.503}]}, {"biological_target": "Fes (UniProt P07332)", "sequence (P07332 whole entry, looked up)": "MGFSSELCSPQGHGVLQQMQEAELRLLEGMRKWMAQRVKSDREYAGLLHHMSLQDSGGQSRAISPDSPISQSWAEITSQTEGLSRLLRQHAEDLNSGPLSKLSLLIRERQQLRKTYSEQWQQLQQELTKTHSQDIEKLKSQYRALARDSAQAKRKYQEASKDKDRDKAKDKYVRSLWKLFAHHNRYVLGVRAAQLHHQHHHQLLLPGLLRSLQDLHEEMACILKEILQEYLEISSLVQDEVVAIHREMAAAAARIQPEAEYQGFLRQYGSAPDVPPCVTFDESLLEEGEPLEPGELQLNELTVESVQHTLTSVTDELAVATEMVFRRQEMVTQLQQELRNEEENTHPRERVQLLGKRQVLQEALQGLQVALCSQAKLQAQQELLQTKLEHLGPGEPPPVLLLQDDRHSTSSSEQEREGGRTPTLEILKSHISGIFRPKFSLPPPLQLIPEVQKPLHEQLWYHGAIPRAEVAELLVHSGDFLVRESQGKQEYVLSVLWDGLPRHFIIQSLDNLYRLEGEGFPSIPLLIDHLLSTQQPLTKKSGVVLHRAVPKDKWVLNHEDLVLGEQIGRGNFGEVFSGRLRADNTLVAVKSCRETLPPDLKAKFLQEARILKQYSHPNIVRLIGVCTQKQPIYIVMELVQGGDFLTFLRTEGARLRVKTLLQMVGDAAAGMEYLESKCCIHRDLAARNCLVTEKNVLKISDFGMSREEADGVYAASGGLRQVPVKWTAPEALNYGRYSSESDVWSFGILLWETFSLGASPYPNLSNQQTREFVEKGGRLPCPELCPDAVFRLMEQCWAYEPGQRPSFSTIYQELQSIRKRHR", "test": "phosphorylation enrichment, bacterial display (enrichment ratio); higher = better substrate or ligand; peptides without Tyr show the background", "values": [{"sequence": "TFMKQYPKVFL [CNBD1_Y70]", "phosphorylation enrichment": 1.09}, {"sequence": "VDTRAYLTSAT [MT-CO1_Y304_F305L]", "phosphorylation enrichment": 0.763}, {"sequence": "MVTSGYKAKMI [EFR3A_Y447_T451M]", "phosphorylation enrichment": 0.589}, {"sequence": "VTQEPYELFCE [CBL_Y368_Q367P_YF]", "phosphorylation enrichment": 1.32}, {"sequence": "DFLSSYSAVKQ [OAT_Y85_N89K]", "phosphorylation enrichment": 1.03}, {"sequence": "PKGIGYGQGAG [CSRP3_Y73]", "phosphorylation enrichment": 0.721}, {"sequence": "TFEFKYPEGSS [TGM4_Y440_YF]", "phosphorylation enrichment": 1.18}, {"sequence": "RAMRRYLERGE [ERBB3_Y680]", "phosphorylation enrichment": 0.576}, {"sequence": "LAAAKYKLNVD [SMARCA2_Y1190]", "phosphorylation enrichment": 0.766}, {"sequence": "AVAFVYFKSIG [ADGRL4_Y301_YF]", "phosphorylation enrichment": 1.6}, {"sequence": "VPANRYDLLRL [FARSB_Y72_C76R]", "phosphorylation enrichment": 0.65}, {"sequence": "TAGEPYHDIRF [BAP1_Y223]", "phosphorylation enrichment": 0.744}, {"sequence": "EFGSGYPNDPK [RNASEH2A_Y210_D205E_YF]", "phosphorylation enrichment": 0.875}, {"sequence": "EGLRRYLENGK [HLA-A_Y195_W191G]", "phosphorylation enrichment": 0.473}, {"sequence": "GVPLGYPIKAP [ELN_Y206]", "phosphorylation enrichment": 0.573}, {"sequence": "FETDFYQKGGK [INSR_Y1190_R1191Q_YF]", "phosphorylation enrichment": 0.88}, {"sequence": "QTEAEYRFIYM [PTPN11_Y511_Q510E]", "phosphorylation enrichment": 1.86}, {"sequence": "PGDGEYFTLQI [TP53_Y327_L323G]", "phosphorylation enrichment": 1.57}, {"sequence": "PSPTKYSLSPS [RANBP2_Y785_R784K]", "phosphorylation enrichment": 0.669}, {"sequence": "VAHAVYQAVLS [SMG1_Y549]", "phosphorylation enrichment": 0.935}, {"sequence": "FFDANYDGKEF [MAPRE2_Y162_YF]", "phosphorylation enrichment": 1.42}, {"sequence": "GADDSYFTARS [ZAP70_Y492_YF]", "phosphorylation enrichment": 0.79}, {"sequence": "DTFDPYLDIAL [USP36_Y268_V271I_YF]", "phosphorylation enrichment": 1.52}, {"sequence": "KLVQLYGVCTK [BTK_Y461]", "phosphorylation enrichment": 0.887}, {"sequence": "FADPFYDFEIE [ZC3H18_Y372_YF]", "phosphorylation enrichment": 1.19}, {"sequence": "EVVGRYSGHNA [MLH1_Y183_V185G]", "phosphorylation enrichment": 0.514}, {"sequence": "EEKKKYFDTKI [CASP5_Y103_YF]", "phosphorylation enrichment": 0.954}, {"sequence": "MDDDQYALLTT [EFCAB6_Y675]", "phosphorylation enrichment": 1.26}, {"sequence": "NGTVTYAIIAG [CDH23_Y1672_V1675I]", "phosphorylation enrichment": 1.28}]}, {"biological_target": "Fyn (UniProt P06241)", "sequence (P06241 whole entry, looked up)": "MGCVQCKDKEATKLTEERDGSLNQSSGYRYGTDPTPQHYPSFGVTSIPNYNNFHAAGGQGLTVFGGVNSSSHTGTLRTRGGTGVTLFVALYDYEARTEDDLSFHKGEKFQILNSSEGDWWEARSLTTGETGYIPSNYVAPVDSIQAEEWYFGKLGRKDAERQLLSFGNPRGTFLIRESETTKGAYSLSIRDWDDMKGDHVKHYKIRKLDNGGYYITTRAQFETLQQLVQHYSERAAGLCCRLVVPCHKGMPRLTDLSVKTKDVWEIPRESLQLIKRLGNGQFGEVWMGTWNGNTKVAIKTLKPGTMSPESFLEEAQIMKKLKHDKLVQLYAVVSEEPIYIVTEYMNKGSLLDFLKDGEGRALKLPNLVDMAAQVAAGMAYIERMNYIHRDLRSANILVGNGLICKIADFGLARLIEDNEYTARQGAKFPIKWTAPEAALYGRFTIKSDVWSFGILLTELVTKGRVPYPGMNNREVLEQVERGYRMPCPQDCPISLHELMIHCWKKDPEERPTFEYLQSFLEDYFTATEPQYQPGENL", "test": "phosphorylation enrichment, bacterial display (enrichment ratio); higher = better substrate or ligand; peptides without Tyr show the background", "values": [{"sequence": "TFMKQYPKVFL [CNBD1_Y70]", "phosphorylation enrichment": 0.525}, {"sequence": "VDTRAYLTSAT [MT-CO1_Y304_F305L]", "phosphorylation enrichment": 0.436}, {"sequence": "MVTSGYKAKMI [EFR3A_Y447_T451M]", "phosphorylation enrichment": 0.355}, {"sequence": "VTQEPYELFCE [CBL_Y368_Q367P_YF]", "phosphorylation enrichment": 0.793}, {"sequence": "DFLSSYSAVKQ [OAT_Y85_N89K]", "phosphorylation enrichment": 0.466}, {"sequence": "PKGIGYGQGAG [CSRP3_Y73]", "phosphorylation enrichment": 0.525}, {"sequence": "TFEFKYPEGSS [TGM4_Y440_YF]", "phosphorylation enrichment": 0.55}, {"sequence": "RAMRRYLERGE [ERBB3_Y680]", "phosphorylation enrichment": 0.608}, {"sequence": "LAAAKYKLNVD [SMARCA2_Y1190]", "phosphorylation enrichment": 0.262}, {"sequence": "AVAFVYFKSIG [ADGRL4_Y301_YF]", "phosphorylation enrichment": 0.643}, {"sequence": "VPANRYDLLRL [FARSB_Y72_C76R]", "phosphorylation enrichment": 0.39}, {"sequence": "TAGEPYHDIRF [BAP1_Y223]", "phosphorylation enrichment": 0.498}, {"sequence": "EFGSGYPNDPK [RNASEH2A_Y210_D205E_YF]", "phosphorylation enrichment": 0.441}, {"sequence": "EGLRRYLENGK [HLA-A_Y195_W191G]", "phosphorylation enrichment": 0.397}, {"sequence": "GVPLGYPIKAP [ELN_Y206]", "phosphorylation enrichment": 0.384}, {"sequence": "FETDFYQKGGK [INSR_Y1190_R1191Q_YF]", "phosphorylation enrichment": 0.519}, {"sequence": "QTEAEYRFIYM [PTPN11_Y511_Q510E]", "phosphorylation enrichment": 0.828}, {"sequence": "PGDGEYFTLQI [TP53_Y327_L323G]", "phosphorylation enrichment": 3.54}, {"sequence": "PSPTKYSLSPS [RANBP2_Y785_R784K]", "phosphorylation enrichment": 0.318}, {"sequence": "VAHAVYQAVLS [SMG1_Y549]", "phosphorylation enrichment": 5.92}, {"sequence": "FFDANYDGKEF [MAPRE2_Y162_YF]", "phosphorylation enrichment": 0.529}, {"sequence": "GADDSYFTARS [ZAP70_Y492_YF]", "phosphorylation enrichment": 0.457}, {"sequence": "DTFDPYLDIAL [USP36_Y268_V271I_YF]", "phosphorylation enrichment": 0.692}, {"sequence": "KLVQLYGVCTK [BTK_Y461]", "phosphorylation enrichment": 1.25}, {"sequence": "FADPFYDFEIE [ZC3H18_Y372_YF]", "phosphorylation enrichment": 3.26}, {"sequence": "EVVGRYSGHNA [MLH1_Y183_V185G]", "phosphorylation enrichment": 0.414}, {"sequence": "EEKKKYFDTKI [CASP5_Y103_YF]", "phosphorylation enrichment": 0.374}, {"sequence": "MDDDQYALLTT [EFCAB6_Y675]", "phosphorylation enrichment": 0.64}, {"sequence": "NGTVTYAIIAG [CDH23_Y1672_V1675I]", "phosphorylation enrichment": 0.968}]}]}
